B1: Rho guanine nucleotide exchange factor TIAM1 (Homo sapiens), Q13009 (parent)
chain: MGNAESQHVEHEFYGEKHASLGRKHTSRSLRLSHKTRRTRHASSGKVIHRNSEVSTRSSSTPSIPQSLAENGLEPFSQDGTLEDFGSPIWVDRVDMGLRPVSYTDSSVTPSVDSSIVLTAASVQSMPDTEESRLYGDDATYLAEGGRRQHSYTSNGPTFMETASFKKKRSKSADIWREDSLEFSLSDLSQEHLTSNEEILGSAEEKDCEEARGMETRASPRQLSTCQRANSLGDLYAQKNSGVTANGGPGSKFAGYCRNLVSDIPNLANHKMPPAAAEETPPYSNYNTLPCRKSHCLSEGATNPQISHSNSMQGRRAKTTQDVNAGEGSEFADSGIEGATTDTDLLSRRSNATNSSYSPTTGRAFVGSDSGSSSTGDAARQGVYENFRRELEMSTTNSESLEEAGSAHSDEQSSGTLSSPGQSDILLTAAQGTVRKAGALAVKNFLVHKKNKKVESATRRKWKHYWVSLKGCTLFFYESDGRSGIDHNSIPKHAVWVENSIVQAVPEHPKKDFVFCLSNSLGDAFLFQTTSQTELENWITAIHSACATAVARHHHKEDTLRLLKSEIKKLEQKIDMDEKMKKMGEMQLSSVTDSKKKKTILDQIFVWEQNLEQFQMDLFRFRCYLASLQGGELPNPKRLLAFASRPTKVAMGRLGIFSVSSFHALVAARTGETGVRRRTQAMSRSASKRRSRFSSLWGLDTTSKKKQGRPSINQVFGEGTEAVKKSLEGIFDDIVPDGKREKEVVLPNVHQHNPDCDIWVHEYFTPSWFCLPNNQPALTVVRPGDTARDTLELICKTHQLDHSAHYLRLKFLIENKMQLYVPQPEEDIYELLYKEIEICPKVTQSIHIEKSDTAADTYGFSLSSVEEDGIRRLYVNSVKETGLASKKGLKAGDEILEINNRAADALNSSMLKDFLSQPSLGLLVRTYPELEEGVELLESPPHRVDGPADLGESPLAFLTSNPGHSLCSEQGSSAETAPEETEGPDLESSDETDHSSKSTEQVAAFCRSLHEMNPSDQSPSPQDSTGPQLATMRQLSDADKLRKVICELLETERTYVKDLNCLMERYLKPLQKETFLTQDELDVLFGNLTEMVEFQVEFLKTLEDGVRLVPDLEKLEKVDQFKKVLFSLGGSFLYYADRFKLYSAFCASHTKVPKVLVKAKTDTAFKAFLDAQNPKQQHSSTLESYLIKPIQRILKYPLLLRELFALTDAESEEHYHLDVAIKTMNKVASHINEMQKIHEEFGAVFDQLIAEQTGEKKEVADLSMGDLLLHTTVIWLNPPASLGKWKKEPELAAFVFKTAVVLVYKDGSKQKKKLVGSHRLSIYEDWDPFRFRHMIPTEALQVRALASADAEANAVCEIVHVKSESEGRPERVFHLCCSSPESRKDFLKAVHSILRDKHRRQLLKTESLPSSQQYVPFGGKRLCALKGARPAMSRAVSAPSKSLGRRRRRLARNRFTIDSDAVSASSPEKESQQPPGGGDTDRWVEEQFDLAQYEEQDDIKETDILSDDDEFCESVKGASVDRDLQERLQATSISQRERGRKTLDSHASRMAQLKKQAALSGINGGLESASEEVIWVRREDFAPSRKLNTEI
partner: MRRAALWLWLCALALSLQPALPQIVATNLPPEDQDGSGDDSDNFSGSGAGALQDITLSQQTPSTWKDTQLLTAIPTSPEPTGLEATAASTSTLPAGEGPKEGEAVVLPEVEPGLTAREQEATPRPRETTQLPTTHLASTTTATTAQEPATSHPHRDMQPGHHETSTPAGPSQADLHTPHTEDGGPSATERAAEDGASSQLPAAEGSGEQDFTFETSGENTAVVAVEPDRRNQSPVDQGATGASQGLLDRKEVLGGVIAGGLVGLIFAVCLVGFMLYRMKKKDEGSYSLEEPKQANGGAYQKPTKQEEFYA
B2: Syndecan-1 (Homo sapiens), P18827 (parent)
chain: B1 partner

Variants of: B1
Conditions: with sdc1_human SDC1, P18827

Variant | effect of a mutation on the interaction
K879E | decreasing interaction strength
K912E | decreasing interaction strength

Variants of: B2
Conditions: with tiam1_human TIAM1, Q13009

Variant | effect of a mutation on the interaction
MRRAALWLWLCALALSLQPALPQIVATNLPPEDQDGSGDDSDNFSGSGAGALQDITLSQQTPSTWKDTQLLTAIPTSPEPTGLEATAASTSTLPAGEGPKEGEAVVLPEVEPGLTAREQEATPRPRETTQLPTTHLASTTTATTAQEPATSHPHRDMQPGHHETSTPAGPSQADLHTPHTEDGGPSATERAAEDGASSQLPAAEGSGEQDFTFETSGENTAVVAVEPDRRNQSPVDQGATGASQGLLDRKEVLGGVIAGGLVGLIFAVCLVGFMLYRMKKKDEGSYSLEEPKQANGGAYQKPTKQKEFYA [E306K] | decreasing interaction strength

— IntAct's records for PubMed 23395182
